The results in this text go back to publication PMC9352680, “A comprehensive thermodynamic model for RNA binding by the Saccharomyces cerevisiae Pumilio protein PUF4”.

To fix the notation:
T1: PUF4 RNA-binding domain (Saccharomyces cerevisiae, UniProt P25339 537-888)
T1 sequence: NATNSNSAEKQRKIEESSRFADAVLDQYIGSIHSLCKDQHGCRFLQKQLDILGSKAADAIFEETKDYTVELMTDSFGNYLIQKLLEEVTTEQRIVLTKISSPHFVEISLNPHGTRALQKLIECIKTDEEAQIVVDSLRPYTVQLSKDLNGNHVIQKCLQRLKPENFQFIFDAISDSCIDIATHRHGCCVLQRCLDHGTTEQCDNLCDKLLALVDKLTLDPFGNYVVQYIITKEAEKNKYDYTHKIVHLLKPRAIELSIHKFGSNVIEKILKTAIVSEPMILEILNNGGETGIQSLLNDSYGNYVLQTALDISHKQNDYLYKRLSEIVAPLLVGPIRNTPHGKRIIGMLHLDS

B1: Ic_S1_P5E.1_K5.1_C5.1_H5.1_A5.1_[T6A]_[A7G]_F5.1_[T8C]_[A10C]_T5.1 (ssRNA)
RNA: UCUCUUUGUAUAGCUCUCUCUU
B2: Ic_S1_P5E.1_K5.1_C5.1_H5.1_A5.1_[T5C]_[T6C]_F5.1_[T8A]_[A10C]_T5.1 (ssRNA)
RNA: UCUCUUUGUACCAAUCUCUCUU
B3: Ic_S1_P5E.1_K5.1_C5.1_H5.1_A5.1_[T5A]_[T6A]_[A7C]_F5.1_[T8A]_[T9A]_[A10C]_T5.1 (ssRNA)
RNA: UCUCUUUGUAAACAACUCUCUU
B4: Ic_S1_P5E.1_K5.1_C5.1_H5.1_A5.1_[T5C]_[T6A]_F5.1_[T8A]_[T9C]_[A10T]_T5.1 (ssRNA)
RNA: UCUCUUUGUACAAACUUCUCUU
B5: Ic_S1_P5E.1_K5.1_C5.1_H5.1_A5.1_[T5A]_[A7T]_F5.1_[T8A]_[T9C]_[A10G]_T5.1 (ssRNA)
RNA: UCUCUUUGUAAUUACGUCUCUU
B6: Ic_S1_P5E.1_K5.1_C5.1_H5.1_A5.1_[T5A]_[T6G]_[A7C]_F5.1_[T8A]_[T9C]_[A10T]_T5.1 (ssRNA)
RNA: UCUCUUUGUAAGCACUUCUCUU
B7: Ib_S1_P3E.1_K3.1_C3.1_H3.1_[G2T]_[T3C]_A3.1_F3.1_T3.1 (ssRNA)
RNA: UCUCUUUUCAUAUAUCUCUU
B8: Ic_S1_P5E.1_K5.1_C5.1_H5.1_A5.1_[T5A]_[T6A]_[A7G]_F5.1_[T8C]_[T9C]_T5.1 (ssRNA)
RNA: UCUCUUUGUAAAGCCAUCUCUU
B9: Ic_S1_P5E.1_K5.1_C5.1_H5.1_A5.1_[T5C]_[A7T]_F5.1_[T8C]_[T9C]_T5.1 (ssRNA)
RNA: UCUCUUUGUACUUCCAUCUCUU
B10: Ic_S1_P5E.1_K5.1_C5.1_H5.1_A5.1_[T5C]_[T6A]_[A7C]_F5.1_[T8C]_[T9G]_T5.1 (ssRNA)
RNA: UCUCUUUGUACACCGAUCUCUU
B11: Ic_S1_P5E.1_K5.1_C5.1_H5.1_A5.1_[T6G]_[A7T]_F5.1_[T9C]_[A10C]_T5.1 (ssRNA)
RNA: UCUCUUUGUAUGUUCCUCUCUU
B12: Ic_S1_P5E.1_K5.1_C5.1_H5.1_A5.1_[T5C]_[T6C]_[A7C]_F5.1_[T8G]_[T9C]_[A10G]_T5.1 (ssRNA)
RNA: UCUCUUUGUACCCGCGUCUCUU
B13: Ic_S1_P5E.1_K5.1_C5.1_H5.1_A5.1_[T5A]_[T6C]_[A7C]_F5.1_[T8A]_[A10G]_T5.1 (ssRNA)
RNA: UCUCUUUGUAACCAUGUCUCUU
B14: Ic_S1_P5E.1_K5.1_C5.1_H5.1_A5.1_[T6G]_[A7G]_F5.1_[T9A]_[A10T]_T5.1 (ssRNA)
RNA: UCUCUUUGUAUGGUAUUCUCUU
B15: Ib_S1_P3E.1_K3.1_C3.1_H3.1_[G2C]_[A4G]_A3.1_F3.1_T3.1 (ssRNA)
RNA: UCUCUUUCUGUAUAUCUCUU
B16: Ic_S1_P5E.1_K5.1_C5.1_H5.1_A5.1_[T5C]_[T6A]_F5.1_[T8A]_[T9A]_[A10T]_T5.1 (ssRNA)
RNA: UCUCUUUGUACAAAAUUCUCUU
B17: Ic_S1_P5E.1_K5.1_C5.1_H5.1_A5.1_[T6G]_[A7G]_F5.1_[A10G]_T5.1 (ssRNA)
RNA: UCUCUUUGUAUGGUUGUCUCUU
B18: Ic_S1_P5E.1_K5.1_C5.1_H5.1_A5.1_[T6A]_F5.1_[T8C]_[T9G]_[A10T]_T5.1 (ssRNA)
RNA: UCUCUUUGUAUAACGUUCUCUU
B19: Ic_S1_P5E.1_K5.1_C5.1_H5.1_A5.1_[T5C]_[T6A]_[A7G]_F5.1_[T9C]_[A10C]_T5.1 (ssRNA)
RNA: UCUCUUUGUACAGUCCUCUCUU
B20: Ic_S1_P5E.1_K5.1_C5.1_H5.1_A5.1_[T5C]_[T6G]_F5.1_[T8A]_[A10T]_T5.1 (ssRNA)
RNA: UCUCUUUGUACGAAUUUCUCUU
B21: Ic_S1_P5E.1_K5.1_C5.1_H5.1_A5.1_[T5C]_[T6A]_[A7T]_F5.1_[T8A]_[T9C]_[A10G]_T5.1 (ssRNA)
RNA: UCUCUUUGUACAUACGUCUCUU
B22: Ic_S1_P5E.1_K5.1_C5.1_H5.1_A5.1_[T6A]_F5.1_[T8A]_[T9A]_T5.1 (ssRNA)
RNA: UCUCUUUGUAUAAAAAUCUCUU
B23: Ic_S1_P5E.1_K5.1_C5.1_H5.1_A5.1_F5.1_[T8C]_[T9C]_[A10T]_T5.1 (ssRNA)
RNA: UCUCUUUGUAUUACCUUCUCUU
B24: Ic_S1_P5E.1_K5.1_C5.1_H5.1_A5.1_[T5C]_[T6A]_[A7C]_F5.1_[T8G]_[T9C]_[A10C]_T5.1 (ssRNA)
RNA: UCUCUUUGUACACGCCUCUCUU
B25: Ic_S1_P5E.1_K5.1_C5.1_H5.1_A5.1_[T5C]_[T6C]_[A7C]_F5.1_[T8A]_[A10C]_T5.1 (ssRNA)
RNA: UCUCUUUGUACCCAUCUCUCUU
B26: Ic_S1_P5E.1_K5.1_C5.1_H5.1_A5.1_[T5A]_[A7G]_F5.1_[A10T]_T5.1 (ssRNA)
RNA: UCUCUUUGUAAUGUUUUCUCUU
B27: Ic_S1_P5E.1_K5.1_C5.1_H5.1_A5.1_[T5A]_[A7T]_F5.1_[T9C]_[A10G]_T5.1 (ssRNA)
RNA: UCUCUUUGUAAUUUCGUCUCUU
B28: Ic_S1_P5E.1_K5.1_C5.1_H5.1_A5.1_[T6G]_[A7T]_F5.1_[T8C]_[T9C]_[A10C]_T5.1 (ssRNA)
RNA: UCUCUUUGUAUGUCCCUCUCUU
B29: Ic_S1_P5E.1_K5.1_C5.1_H5.1_A5.1_[T6A]_F5.1_[T9G]_[A10G]_T5.1 (ssRNA)
RNA: UCUCUUUGUAUAAUGGUCUCUU
B30: Ib_S1_P3E.1_K3.1_C3.1_H3.1_[G2T]_[T3A]_A3.1_F3.1_T3.1 (ssRNA)
RNA: UCUCUUUUAAUAUAUCUCUU
B31: Ic_S1_P5E.1_K5.1_C5.1_H5.1_A5.1_[T6C]_[A7T]_F5.1_[T8C]_[A10G]_T5.1 (ssRNA)
RNA: UCUCUUUGUAUCUCUGUCUCUU
B32: Ic_S1_P5E.1_K5.1_C5.1_H5.1_A5.1_[T5A]_[A7G]_F5.1_[T8C]_[A10T]_T5.1 (ssRNA)
RNA: UCUCUUUGUAAUGCUUUCUCUU
B33: Ic_S1_P5E.1_K5.1_C5.1_H5.1_A5.1_[T6A]_[A7C]_F5.1_[T8A]_[T9C]_[A10T]_T5.1 (ssRNA)
RNA: UCUCUUUGUAUACACUUCUCUU
B34: Ic_S1_P5E.1_K5.1_C5.1_H5.1_A5.1_[T5C]_[T6G]_[A7G]_F5.1_[T8C]_[A10G]_T5.1 (ssRNA)
RNA: UCUCUUUGUACGGCUGUCUCUU
B35: Ic_S1_P5E.1_K5.1_C5.1_H5.1_A5.1_[T5G]_[A7T]_F5.1_[T8C]_[T9C]_[A10C]_T5.1 (ssRNA)
RNA: UCUCUUUGUAGUUCCCUCUCUU
B36: Ic_S1_P5E.1_K5.1_C5.1_H5.1_A5.1_[T5C]_[T6C]_F5.1_[T9G]_T5.1 (ssRNA)
RNA: UCUCUUUGUACCAUGAUCUCUU
B37: Ib_S1_P3E.1_K3.1_C3.1_H3.1_[G2C]_[T3A]_A3.1_F3.1_T3.1 (ssRNA)
RNA: UCUCUUUCAAUAUAUCUCUU
B38: Ic_S1_P5E.1_K5.1_C5.1_H5.1_A5.1_[T5A]_[T6A]_[A7G]_F5.1_[T8C]_[A10C]_T5.1 (ssRNA)
RNA: UCUCUUUGUAAAGCUCUCUCUU
B39: Ic_S1_P5E.1_K5.1_C5.1_H5.1_A5.1_[T6A]_F5.1_[T8C]_[T9A]_[A10T]_T5.1 (ssRNA)
RNA: UCUCUUUGUAUAACAUUCUCUU
B40: Ic_S1_P5E.1_K5.1_C5.1_H5.1_A5.1_[T5A]_[T6C]_[A7T]_F5.1_[T9G]_[A10T]_T5.1 (ssRNA)
RNA: UCUCUUUGUAACUUGUUCUCUU
B41: Ic_S1_P5E.1_K5.1_C5.1_H5.1_A5.1_[T5C]_F5.1_[T8C]_[T9C]_[A10C]_T5.1 (ssRNA)
RNA: UCUCUUUGUACUACCCUCUCUU
B42: Ic_S1_P5E.1_K5.1_C5.1_H5.1_A5.1_[T5A]_[T6G]_[A7C]_F5.1_[T9C]_[A10C]_T5.1 (ssRNA)
RNA: UCUCUUUGUAAGCUCCUCUCUU
B43: Ic_S1_P5E.1_K5.1_C5.1_H5.1_A5.1_[T6C]_[A7G]_F5.1_[T9A]_[A10C]_T5.1 (ssRNA)
RNA: UCUCUUUGUAUCGUACUCUCUU
B44: Ic_S1_P5E.1_K5.1_C5.1_H5.1_A5.1_[T5C]_[A7C]_F5.1_[T9G]_[A10T]_T5.1 (ssRNA)
RNA: UCUCUUUGUACUCUGUUCUCUU
B45: Ic_S1_P5E.1_K5.1_C5.1_H5.1_A5.1_[T5C]_[T6C]_F5.1_[T8C]_[T9C]_[A10C]_T5.1 (ssRNA)
RNA: UCUCUUUGUACCACCCUCUCUU
B46: Ic_S1_P5E.1_K5.1_C5.1_H5.1_A5.1_[T5C]_[A7G]_F5.1_[T8C]_[T9G]_[A10C]_T5.1 (ssRNA)
RNA: UCUCUUUGUACUGCGCUCUCUU

The target of the data set is T1, PUF4 RNA-binding domain. The data set can be described thus: Mg; RNA-MaP; 20 mM Na-HEPES pH 7.4, 30 mM KOAc, 0.75 mM MgCl2, 0.1% Tween-20, 5% glycerol, 0.1 mg/mL BSA, 2 mM DTT; 25 C; 0.0125-409.6 nM protein. As to conditions: tags: N-His6-TEV cleaved; C-SNAP kept, Cy3B-labelled; label: tethered on chip by stalled RNA polymerase.
In turn, B1 yielded a Kd of 111 nM. This lies in the sub-micromolar range.

As to B2, binding was characterised by a dissociation constant (Kd) of 119 nM. The Kd values of the last two molecules are within 1.5-fold of each other.

Regarding B3, the affinity, expressed as Kd, was 88.4 nM.

Take B4: binding was characterised by a dissociation constant (Kd) of 93.1 nM.

Molecule B5 yielded a Kd of 613 nM.

For the molecule B6, the Kd was greater than 2300 nM.

B7 returned a dissociation constant Kd greater than 2300 nM.

Consider B8, for which binding was characterised by a dissociation constant (Kd) of 1060 nM.

B9: the Kd is 666 nM. This Kd lies about 1.6-fold lower than the previous one.

In turn, B10 came in with a dissociation constant Kd of 425 nM. This Kd is about 1.6-fold lower than that of the molecule before.

B11 showed a Kd of 28.6 nM.

B12 registered a Kd greater than 2300 nM.

For B13, the equilibrium dissociation constant (Kd) was 481 nM.

With B14, the equilibrium dissociation constant (Kd) worked out at 13.3 nM.

On to B15, for which binding was put at a Kd of 27.6 nM.

For B16, the Kd turned out to be 30.9 nM.

Take B17: binding was put at a Kd of 717 nM.

For B18, binding was characterised by a dissociation constant (Kd) of 34.4 nM. Against the preceding molecule, the Kd is about 21-fold lower.

In turn, B19 showed a Kd of 13.5 nM.

Molecule B20 returned an equilibrium dissociation constant (Kd) of 693 nM.

B21 had an equilibrium dissociation constant (Kd) of 11 nM.

Take B22: the Kd was found to be 42 nM.

In the case of B23, the Kd worked out at 496 nM.

B24: the affinity, expressed as Kd, was 394 nM.

B25 showed a Kd of 603 nM.

In the case of B26, the affinity, expressed as Kd, was 118 nM.

B27 yielded a dissociation constant Kd of 92.7 nM.

The molecule B28 returned a Kd of 125 nM.

As for B29, the dissociation constant Kd was found to be 8.53 nM. This Kd is about 15-fold lower than that of the molecule before.

For B30, the dissociation constant (Kd) was greater than 2300 nM.

In turn, B31 displayed a Kd of 58.6 nM. In other words, the double-digit nanomolar range.

B32 registered a Kd of 181 nM.

B33 yielded a Kd of 69.2 nM.

With B34, the dissociation constant Kd is 2200 nM.

Take B35: the affinity, expressed as Kd, was 1650 nM. The Kd values of the last two molecules are within 1.5-fold of each other.

B36 yielded a dissociation constant Kd of 8.03 nM.

B37 registered a dissociation constant Kd greater than 2300 nM.

With B38, binding was put at a Kd of 1270 nM.

In the case of B39, the dissociation constant Kd came to 12.6 nM.

With B40, the Kd came to 49.4 nM.

B41 displayed a Kd of 656 nM.

Turning to B42, the Kd is 1500 nM.

The molecule B43 came in with a dissociation constant Kd of 13.9 nM.

B44: the Kd came to 21.5 nM.

B45: the Kd is 523 nM.

The molecule B46 registered a Kd of 1380 nM.
